Data published in PMC12800425, “De novo cysteine biosynthesis in Pseudomonas aeruginosa: Characterization of the two main cysteine synthase isoforms” (iScience, 2025).

How the values were obtained:
[1] = target: T1, PA0932 (PaCysM, cysteine synthase B) (Pseudomonas aeruginosa, UniProt Q9I526); test: ninhydrin steady-state kinetics, global fit (Km […]); substrate inhibition Ki; assay type: biochemical
T1 construct: gene cysM; recombinant, N-terminal His-tag with TEV cleavage site; homodimer
T1 sequence (Q9I526 1-299): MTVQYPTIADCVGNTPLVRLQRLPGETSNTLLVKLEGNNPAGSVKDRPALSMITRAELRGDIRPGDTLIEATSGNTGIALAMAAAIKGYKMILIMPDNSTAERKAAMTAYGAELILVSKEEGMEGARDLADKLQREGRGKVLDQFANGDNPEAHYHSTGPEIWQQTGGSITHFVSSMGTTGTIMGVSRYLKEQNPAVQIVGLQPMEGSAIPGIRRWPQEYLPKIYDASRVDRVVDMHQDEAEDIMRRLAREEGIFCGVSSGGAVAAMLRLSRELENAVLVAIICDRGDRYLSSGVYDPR

[2] = target: T2, PA2709 (PaCysK, cysteine synthase A) (Pseudomonas aeruginosa, UniProt Q9I0D3); test: UV-vis absorption ([…] nm), near-UV circular dichroism, fluorescence; assay type: binding
T2 construct: gene cysK; recombinant, N-terminal His-tag with TEV cleavage site; homodimer
T2 sequence (Q9I0D3 1-324): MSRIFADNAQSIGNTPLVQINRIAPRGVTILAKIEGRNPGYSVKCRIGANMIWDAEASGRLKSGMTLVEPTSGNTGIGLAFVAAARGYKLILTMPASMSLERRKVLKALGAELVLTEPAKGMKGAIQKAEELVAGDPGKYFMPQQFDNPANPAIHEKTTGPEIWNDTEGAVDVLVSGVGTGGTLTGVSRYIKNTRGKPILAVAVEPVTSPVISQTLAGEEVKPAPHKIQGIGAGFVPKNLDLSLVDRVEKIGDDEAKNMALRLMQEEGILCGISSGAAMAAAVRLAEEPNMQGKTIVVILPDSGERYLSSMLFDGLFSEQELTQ

[3] = target: T1, PA0932 (PaCysM, cysteine synthase B); test: as above; assay type: binding
[4] = substrate: CC(=O)OC[C@H](N)C(=O)O; test: UV-vis absorption of PLP intermediates; steady-state kinetics with bisulfide electrode (Km); assay type: biochemical, Pseudomonas aeruginosa; conditions: pyridoxal […]'-phosphate (PLP) active site; forms alpha-aminoacrylate intermediate with PLP; pH 7.0; 25.0 °C
[5] = target: the molecule itself; test: SEC-MALS; Agilent GPC/SEC, AdvanceBio SEC column (300 Å), dual-angle light-scattering detector, BSA as calibrant; protein loaded at 1 mg/mL in buffer H (100 mM HEPES, pH 7.0), 20 °C, 1 mL/min
[6] = substrate: CC(=O)OC[C@H](N)C(=O)O; test: UV-vis absorption of PLP intermediates; steady-state kinetics, ninhydrin assay with thiosulfate (Km); assay type: biochemical, Pseudomonas aeruginosa; conditions: pyridoxal […]'-phosphate (PLP) active site; forms alpha-aminoacrylate intermediate with PLP; pH 7.0; 25.0 °C

Molecule: O=S(O)(O)=S [thiosulfate]
- Ki [1]: 970 ± 830 µM

Molecule: Cc1ncc(COP(=O)(O)O)c(C=O)c1O [PLP, pyridoxal 5′-phosphate]
- UV-vis absorption (411 nm), near-UV circular dichroism, fluorescence [2]: absorption of the PLP cofactor bound as an internal aldimine to the catalytic lysine
- UV-vis absorption (413 nm), near-UV circular dichroism, fluorescence [3]: absorption of the PLP cofactor bound as an internal aldimine to the catalytic lysine

B1: PA2709 (PaCysK, cysteine synthase A) (Pseudomonas aeruginosa PAO1) (protein)
chain: T2 sequence (Q9I0D3 1-324)
notes: recombinant, N-terminal His-tag with TEV cleavage site; homodimer
- Km [4]: 1100 ± 100 µM
- kcat [4]: 102 ± 3 s⁻¹
- kcat/Km [4]: 90000 ± 9000 M⁻¹ s⁻¹

B2: Cysteine synthase A (PA2709, PaCysK) from Pseudomonas aeruginosa (enzyme, Pseudomonas aeruginosa PAO1, UniProt Q9I0D3 1-324, looked up)
chain: T2 sequence (Q9I0D3 1-324)
modifications: PLP cofactor bound as an internal aldimine to the catalytic lysine (Lys44, based on sequence alignments)
notes: Cysteine synthase A (CysK, PA2709) of P. aeruginosa PAO1; gene optimised for E. coli, synthesised and cloned between NdeI and BamHI into pET28a-TEV; calculated mass for a dimer 69 kDa; also called O-acetylserine sulfhydrylase; OASS-A; not shown: His6, N-terminal, cleaved
- stoichiometry N [5]: 2

B3: PA0932 (PaCysM, cysteine synthase B) (Pseudomonas aeruginosa PAO1) (protein)
chain: T1 sequence (Q9I526 1-299)
notes: as for B1
- Km [6]: 2700 ± 600 µM
- kcat [6]: 209 ± 25 s⁻¹
- kcat/Km [6]: 79000 ± 20000 M⁻¹ s⁻¹

B4: Cysteine synthase B (PA0932, PaCysM) from Pseudomonas aeruginosa (enzyme, Pseudomonas aeruginosa PAO1, UniProt Q9I526 1-299, looked up)
chain: T1 sequence (Q9I526 1-299)
modifications: PLP cofactor bound as an internal aldimine to the catalytic lysine (Lys45, based on sequence alignments)
notes: Cysteine synthase B (CysM, PA0932) of P. aeruginosa PAO1; gene optimised for E. coli, synthesised and cloned between NdeI and BamHI into pET28a-TEV; calculated mass for a dimer 65 kDa; also called OASS-B; S-sulfocysteine synthase; not shown: His6, N-terminal, cleaved
- stoichiometry N [5]: 2
